Experimental data taken from FireProtDB (doi:10.1016/0022-2836(92)90562-x).

B1: Ribonuclease, P00648 (parent)
chain: MMKMEGIALKKRLSWISVCLLVLVSAAGMLFSTAAKTETSSHKAHTEAQVINTFDGVADYLQTYHKLPDNYITKSEAQALGWVASKGNLADVAPGKSIGGDIFSNREGKLPGKSGRTWREADINYTSGFRNSDRILYSSDWLIYKTTDHYQTFTKIR

Variants of: B1
Conditions: Bacillus amyloliquefaciens; pH 6.3; 25 °C; Urea; Fluorescence; MES-NaOH 450 mM; reversible: yes; structure 1BNI; whole UniProt chain shown

D59A
ddG of mutation (higher = less stable): 0.39 kcal/mol | denaturant m value: 1.91 kcal/mol/M | denaturant midpoint (higher = more stable): 4.4 M | unfolding free energy: 8.43 kcal/mol

T152V
ddG of mutation (higher = less stable): 2.14 kcal/mol | denaturant m value: 1.95 kcal/mol/M | denaturant midpoint (higher = more stable): 3.4 M | unfolding free energy: 6.68 kcal/mol

Y71F
ddG of mutation (higher = less stable): -0.09 kcal/mol | denaturant m value: 1.95 kcal/mol/M | denaturant midpoint (higher = more stable): 4.5 M | unfolding free energy: 8.91 kcal/mol

R157A
ddG of mutation (higher = less stable): -0.07 kcal/mol | denaturant m value: 2.03 kcal/mol/M | denaturant midpoint (higher = more stable): 4.3 M | unfolding free energy: 8.89 kcal/mol

Y150F
ddG of mutation (higher = less stable): 0.18 kcal/mol | denaturant m value: 1.89 kcal/mol/M | denaturant midpoint (higher = more stable): 4.5 M | unfolding free energy: 8.64 kcal/mol

L136V
ddG of mutation (higher = less stable): 0.47 kcal/mol | denaturant m value: 1.89 kcal/mol/M | denaturant midpoint (higher = more stable): 4.4 M | unfolding free energy: 8.35 kcal/mol

L136T
ddG of mutation (higher = less stable): 3.28 kcal/mol | denaturant m value: 1.78 kcal/mol/M | denaturant midpoint (higher = more stable): 3.1 M | unfolding free energy: 5.54 kcal/mol

T73A
ddG of mutation (higher = less stable): 1.67 kcal/mol | denaturant m value: 2 kcal/mol/M | denaturant midpoint (higher = more stable): 3.5 M | unfolding free energy: 7.15 kcal/mol

T73G
ddG of mutation (higher = less stable): 1.01 kcal/mol | denaturant m value: 2.03 kcal/mol/M | denaturant midpoint (higher = more stable): 3.8 M | unfolding free energy: 7.81 kcal/mol

Y125F
ddG of mutation (higher = less stable): 1.14 kcal/mol | denaturant m value: 1.98 kcal/mol/M | denaturant midpoint (higher = more stable): 3.8 M | unfolding free energy: 7.68 kcal/mol

K109R
ddG of mutation (higher = less stable): 0.32 kcal/mol | denaturant m value: 1.95 kcal/mol/M | denaturant midpoint (higher = more stable): 4.3 M | unfolding free energy: 8.5 kcal/mol

I102V
ddG of mutation (higher = less stable): 0.63 kcal/mol | denaturant m value: 1.85 kcal/mol/M | denaturant midpoint (higher = more stable): 4.4 M | unfolding free energy: 8.19 kcal/mol

I102T
ddG of mutation (higher = less stable): 1.24 kcal/mol | denaturant m value: 1.84 kcal/mol/M | denaturant midpoint (higher = more stable): 4.1 M | unfolding free energy: 7.58 kcal/mol

I156A
ddG of mutation (higher = less stable): 1.27 kcal/mol | denaturant m value: 2.15 kcal/mol/M | denaturant midpoint (higher = more stable): 3.5 M | unfolding free energy: 7.55 kcal/mol

I156V
ddG of mutation (higher = less stable): 0.81 kcal/mol | denaturant m value: 1.92 kcal/mol/M | denaturant midpoint (higher = more stable): 4.1 M | unfolding free energy: 8.01 kcal/mol

V92T
ddG of mutation (higher = less stable): 2.22 kcal/mol | denaturant m value: 1.99 kcal/mol/M | denaturant midpoint (higher = more stable): 3.3 M | unfolding free energy: 6.6 kcal/mol

V92A
ddG of mutation (higher = less stable): 1.17 kcal/mol | denaturant m value: 2.08 kcal/mol/M | denaturant midpoint (higher = more stable): 3.6 M | unfolding free energy: 7.65 kcal/mol

S139A
ddG of mutation (higher = less stable): 3.22 kcal/mol | denaturant m value: 1.78 kcal/mol/M | denaturant midpoint (higher = more stable): 3.1 M | unfolding free energy: 5.6 kcal/mol

V83T
ddG of mutation (higher = less stable): 1.05 kcal/mol | denaturant m value: 1.95 kcal/mol/M | denaturant midpoint (higher = more stable): 3.9 M | unfolding free energy: 7.77 kcal/mol

V83A
ddG of mutation (higher = less stable): 1.68 kcal/mol | denaturant m value: 1.83 kcal/mol/M | denaturant midpoint (higher = more stable): 3.9 M | unfolding free energy: 7.14 kcal/mol

N124A
ddG of mutation (higher = less stable): 1.45 kcal/mol | denaturant m value: 1.98 kcal/mol/M | denaturant midpoint (higher = more stable): 3.7 M | unfolding free energy: 7.37 kcal/mol

D101N
ddG of mutation (higher = less stable): 1.78 kcal/mol | denaturant m value: 2.11 kcal/mol/M | denaturant midpoint (higher = more stable): 3.3 M | unfolding free energy: 7.04 kcal/mol

D101A
ddG of mutation (higher = less stable): 2.86 kcal/mol | denaturant m value: 1.95 kcal/mol/M | denaturant midpoint (higher = more stable): 3 M | unfolding free energy: 5.96 kcal/mol

K74G
ddG of mutation (higher = less stable): 0.38 kcal/mol | denaturant m value: 1.94 kcal/mol/M | denaturant midpoint (higher = more stable): 4.3 M | unfolding free energy: 8.44 kcal/mol

N88D
ddG of mutation (higher = less stable): 2.62 kcal/mol | denaturant m value: 1.89 kcal/mol/M | denaturant midpoint (higher = more stable): 3.2 M | unfolding free energy: 6.2 kcal/mol

N131A
ddG of mutation (higher = less stable): 1.59 kcal/mol | denaturant m value: 2.04 kcal/mol/M | denaturant midpoint (higher = more stable): 3.5 M | unfolding free energy: 7.23 kcal/mol

N105A
ddG of mutation (higher = less stable): 2 kcal/mol | denaturant m value: 1.97 kcal/mol/M | denaturant midpoint (higher = more stable): 3.4 M | unfolding free energy: 6.82 kcal/mol

N105D
ddG of mutation (higher = less stable): -0.31 kcal/mol | denaturant m value: 1.9 kcal/mol/M | denaturant midpoint (higher = more stable): 4.8 M | unfolding free energy: 9.13 kcal/mol

V57T
ddG of mutation (higher = less stable): 1.99 kcal/mol | denaturant m value: 2.07 kcal/mol/M | denaturant midpoint (higher = more stable): 3.3 M | unfolding free energy: 6.83 kcal/mol

V57A
ddG of mutation (higher = less stable): 3.47 kcal/mol | denaturant m value: 1.89 kcal/mol/M | denaturant midpoint (higher = more stable): 2.8 M | unfolding free energy: 5.35 kcal/mol

I72V
ddG of mutation (higher = less stable): 0.83 kcal/mol | denaturant m value: 2 kcal/mol/M | denaturant midpoint (higher = more stable): 4 M | unfolding free energy: 7.99 kcal/mol

I72A
ddG of mutation (higher = less stable): 3.68 kcal/mol | denaturant m value: 1.85 kcal/mol/M | denaturant midpoint (higher = more stable): 2.7 M | unfolding free energy: 5.14 kcal/mol

D55A D59A R157A
ddG of mutation (higher = less stable): -0.18 kcal/mol | denaturant m value: 1.94 kcal/mol/M | denaturant midpoint (higher = more stable): 4.63 M | unfolding free energy: 9 kcal/mol

S138A
ddG of mutation (higher = less stable): 2.41 kcal/mol | denaturant m value: 1.79 kcal/mol/M | denaturant midpoint (higher = more stable): 3.5 M | unfolding free energy: 6.41 kcal/mol

N52A
ddG of mutation (higher = less stable): 1.59 kcal/mol | denaturant m value: 2 kcal/mol/M | denaturant midpoint (higher = more stable): 3.6 M | unfolding free energy: 7.23 kcal/mol

D55A
ddG of mutation (higher = less stable): 0.85 kcal/mol | denaturant m value: 1.94 kcal/mol/M | denaturant midpoint (higher = more stable): 4.1 M | unfolding free energy: 7.97 kcal/mol

Y64A
ddG of mutation (higher = less stable): 1.67 kcal/mol | denaturant m value: 2.02 kcal/mol/M | denaturant midpoint (higher = more stable): 3.5 M | unfolding free energy: 7.15 kcal/mol

Y60A Y64A
ddG of mutation (higher = less stable): 3.96 kcal/mol | denaturant m value: 2 kcal/mol/M | denaturant midpoint (higher = more stable): 2.43 M | unfolding free energy: 4.86 kcal/mol

L61A
ddG of mutation (higher = less stable): 4.53 kcal/mol | denaturant m value: 1.87 kcal/mol/M | denaturant midpoint (higher = more stable): 2.2 M | unfolding free energy: 4.29 kcal/mol

I98V
ddG of mutation (higher = less stable): 1.13 kcal/mol | denaturant m value: 2.11 kcal/mol/M | denaturant midpoint (higher = more stable): 3.6 M | unfolding free energy: 7.69 kcal/mol

I98A
ddG of mutation (higher = less stable): 4.72 kcal/mol | denaturant m value: 1.9 kcal/mol/M | denaturant midpoint (higher = more stable): 2.1 M | unfolding free energy: 4.1 kcal/mol

N70A
ddG of mutation (higher = less stable): 2.2 kcal/mol | denaturant m value: 1.94 kcal/mol/M | denaturant midpoint (higher = more stable): 3.4 M | unfolding free energy: 6.62 kcal/mol

Y60A
ddG of mutation (higher = less stable): 3 kcal/mol | denaturant m value: 2.03 kcal/mol/M | denaturant midpoint (higher = more stable): 2.8 M | unfolding free energy: 5.82 kcal/mol

T146V
ddG of mutation (higher = less stable): 2.92 kcal/mol | denaturant m value: 1.84 kcal/mol/M | denaturant midpoint (higher = more stable): 3.2 M | unfolding free energy: 5.9 kcal/mol

I135A
ddG of mutation (higher = less stable): 4.02 kcal/mol | denaturant m value: 1.94 kcal/mol/M | denaturant midpoint (higher = more stable): 2.4 M | unfolding free energy: 4.8 kcal/mol

I135V
ddG of mutation (higher = less stable): 1.64 kcal/mol | denaturant m value: 1.85 kcal/mol/M | denaturant midpoint (higher = more stable): 3.8 M | unfolding free energy: 7.18 kcal/mol

I51A
ddG of mutation (higher = less stable): 0.75 kcal/mol | denaturant m value: 2.08 kcal/mol/M | denaturant midpoint (higher = more stable): 3.8 M | unfolding free energy: 8.07 kcal/mol

I51V
ddG of mutation (higher = less stable): 0.81 kcal/mol | denaturant m value: 1.88 kcal/mol/M | denaturant midpoint (higher = more stable): 4.2 M | unfolding free energy: 8.01 kcal/mol

T63R
ddG of mutation (higher = less stable): -0.74 kcal/mol | denaturant m value: 1.99 kcal/mol/M | denaturant midpoint (higher = more stable): 4.8 M | unfolding free energy: 9.56 kcal/mol

T63S
ddG of mutation (higher = less stable): 1.36 kcal/mol | denaturant m value: 2.03 kcal/mol/M | denaturant midpoint (higher = more stable): 3.6 M | unfolding free energy: 7.46 kcal/mol

Q78S
ddG of mutation (higher = less stable): -0.07 kcal/mol | denaturant m value: 2 kcal/mol/M | denaturant midpoint (higher = more stable): 4.4 M | unfolding free energy: 8.89 kcal/mol

E76G
ddG of mutation (higher = less stable): 2.05 kcal/mol | denaturant m value: 1.84 kcal/mol/M | denaturant midpoint (higher = more stable): 3.6 M | unfolding free energy: 6.77 kcal/mol

D55A D59A
ddG of mutation (higher = less stable): 1.41 kcal/mol | denaturant m value: 1.78 kcal/mol/M | denaturant midpoint (higher = more stable): 4.16 M | unfolding free energy: 7.41 kcal/mol

I123A
ddG of mutation (higher = less stable): 1.66 kcal/mol | denaturant m value: 1.99 kcal/mol/M | denaturant midpoint (higher = more stable): 3.6 M | unfolding free energy: 7.16 kcal/mol

I123V
ddG of mutation (higher = less stable): 0.98 kcal/mol | denaturant m value: 1.89 kcal/mol/M | denaturant midpoint (higher = more stable): 4.1 M | unfolding free energy: 7.84 kcal/mol

D59A R157A
ddG of mutation (higher = less stable): -0.39 kcal/mol | denaturant m value: 1.93 kcal/mol/M | denaturant midpoint (higher = more stable): 4.78 M | unfolding free energy: 9.21 kcal/mol

T53A
ddG of mutation (higher = less stable): 2.02 kcal/mol | denaturant m value: 1.97 kcal/mol/M | denaturant midpoint (higher = more stable): 3.4 M | unfolding free energy: 6.8 kcal/mol

T53G
ddG of mutation (higher = less stable): 0.61 kcal/mol | denaturant m value: 2.08 kcal/mol/M | denaturant midpoint (higher = more stable): 3.9 M | unfolding free energy: 8.21 kcal/mol

I143V
ddG of mutation (higher = less stable): 1.02 kcal/mol | denaturant m value: 1.9 kcal/mol/M | denaturant midpoint (higher = more stable): 4.1 M | unfolding free energy: 7.8 kcal/mol

I143A
ddG of mutation (higher = less stable): 3.15 kcal/mol | denaturant m value: 1.96 kcal/mol/M | denaturant midpoint (higher = more stable): 2.8 M | unfolding free energy: 5.67 kcal/mol
